Columns and labels:
AncSZ = assay: phosphorylation enrichment, bacterial display (enrichment ratio); higher = better substrate or ligand; peptides without Tyr show the background
EPHB1 = EPHB1 (UniProt P54762); assay: as above
EPHB2 = EPHB2 (UniProt P29323); assay: as above
FGFR1 = FGFR1 (UniProt P11362); assay: as above
FGFR3 = FGFR3 (UniProt P22607); assay: as above
Fer (mouse) = assay: as above
Fes = Fes (UniProt P07332); assay: as above
Fyn = Fyn (UniProt P06241); assay: as above
Hck = Hck (UniProt P08631); assay: as above
Jak2 = Jak2 (UniProt O60674); assay: as above
MERTK = MERTK (UniProt Q12866); assay: as above
c-Abl (mouse) = assay: as above
c-Src = assay: as above
Grb2 SH2 = Grb2 SH2 (UniProt P62993); assay: SH2 binding enrichment of the phosphorylated peptide, bacterial display (enrichment ratio); higher = better substrate or ligand; peptides without Tyr show the background
SHP2-C SH2 = assay: as above
c-Src SH2 = assay: as above
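Throughout, for SH2 binding enrichment of the phosphorylated peptide, bacterial display: peptide library displayed on the E. coli surface as eCPX fusions, selected cells deep-sequenced, score is each peptide's frequency after selection divided by its frequency in the input.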
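Throughout, for phosphorylation enrichment, bacterial display: 11-residue human phosphosite peptides and single-mutation variants displayed on the E. coli surface, counted by deep sequencing, each peptide's frequency after selection divided by its frequency in the unselected input library; frequency after pTyr selection over input frequency; kinase dosed for 20-30% of maximal phosphorylation in three min.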

Sequence of Fyn (P06241 whole entry, looked up): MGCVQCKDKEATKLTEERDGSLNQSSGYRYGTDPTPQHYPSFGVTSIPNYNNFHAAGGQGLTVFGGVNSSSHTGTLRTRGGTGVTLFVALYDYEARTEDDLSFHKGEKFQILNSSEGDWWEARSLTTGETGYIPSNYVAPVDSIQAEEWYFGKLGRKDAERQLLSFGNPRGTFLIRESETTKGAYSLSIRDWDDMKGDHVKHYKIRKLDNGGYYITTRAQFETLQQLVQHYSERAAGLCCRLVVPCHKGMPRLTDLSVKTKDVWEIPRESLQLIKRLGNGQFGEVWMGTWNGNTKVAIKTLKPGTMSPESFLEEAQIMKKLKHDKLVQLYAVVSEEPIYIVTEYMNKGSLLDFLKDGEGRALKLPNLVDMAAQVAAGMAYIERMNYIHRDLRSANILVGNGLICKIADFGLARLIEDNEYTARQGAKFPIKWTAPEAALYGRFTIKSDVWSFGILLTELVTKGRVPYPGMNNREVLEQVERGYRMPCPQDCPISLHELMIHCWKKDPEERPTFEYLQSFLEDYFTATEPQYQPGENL
Sequence of MERTK (Q12866 whole entry, looked up): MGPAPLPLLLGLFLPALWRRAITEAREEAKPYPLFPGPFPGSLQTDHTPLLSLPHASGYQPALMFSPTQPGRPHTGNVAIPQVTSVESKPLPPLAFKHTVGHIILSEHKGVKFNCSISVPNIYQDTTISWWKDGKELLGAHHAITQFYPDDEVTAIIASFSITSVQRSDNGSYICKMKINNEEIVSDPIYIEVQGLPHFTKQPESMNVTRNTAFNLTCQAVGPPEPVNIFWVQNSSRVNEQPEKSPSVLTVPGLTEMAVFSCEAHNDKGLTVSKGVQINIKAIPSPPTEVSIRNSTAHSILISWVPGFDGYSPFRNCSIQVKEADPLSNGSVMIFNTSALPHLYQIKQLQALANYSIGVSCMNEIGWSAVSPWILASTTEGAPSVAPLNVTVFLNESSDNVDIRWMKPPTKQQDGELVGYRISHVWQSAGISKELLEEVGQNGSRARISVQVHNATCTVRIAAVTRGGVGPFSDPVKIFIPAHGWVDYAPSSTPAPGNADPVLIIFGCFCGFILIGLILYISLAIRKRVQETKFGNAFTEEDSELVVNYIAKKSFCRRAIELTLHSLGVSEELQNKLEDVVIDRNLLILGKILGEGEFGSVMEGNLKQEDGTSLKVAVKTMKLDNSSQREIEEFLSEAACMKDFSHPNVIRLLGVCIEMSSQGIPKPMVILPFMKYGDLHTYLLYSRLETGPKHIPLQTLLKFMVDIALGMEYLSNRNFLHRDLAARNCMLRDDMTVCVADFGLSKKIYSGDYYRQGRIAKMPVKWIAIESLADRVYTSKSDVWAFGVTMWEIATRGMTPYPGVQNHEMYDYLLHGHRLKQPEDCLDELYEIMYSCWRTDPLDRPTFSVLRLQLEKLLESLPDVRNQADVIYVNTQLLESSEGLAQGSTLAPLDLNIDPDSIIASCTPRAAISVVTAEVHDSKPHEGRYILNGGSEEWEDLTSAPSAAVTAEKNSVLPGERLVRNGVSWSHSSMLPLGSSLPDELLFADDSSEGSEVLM
Sequence of FGFR1 (P11362 whole entry, looked up): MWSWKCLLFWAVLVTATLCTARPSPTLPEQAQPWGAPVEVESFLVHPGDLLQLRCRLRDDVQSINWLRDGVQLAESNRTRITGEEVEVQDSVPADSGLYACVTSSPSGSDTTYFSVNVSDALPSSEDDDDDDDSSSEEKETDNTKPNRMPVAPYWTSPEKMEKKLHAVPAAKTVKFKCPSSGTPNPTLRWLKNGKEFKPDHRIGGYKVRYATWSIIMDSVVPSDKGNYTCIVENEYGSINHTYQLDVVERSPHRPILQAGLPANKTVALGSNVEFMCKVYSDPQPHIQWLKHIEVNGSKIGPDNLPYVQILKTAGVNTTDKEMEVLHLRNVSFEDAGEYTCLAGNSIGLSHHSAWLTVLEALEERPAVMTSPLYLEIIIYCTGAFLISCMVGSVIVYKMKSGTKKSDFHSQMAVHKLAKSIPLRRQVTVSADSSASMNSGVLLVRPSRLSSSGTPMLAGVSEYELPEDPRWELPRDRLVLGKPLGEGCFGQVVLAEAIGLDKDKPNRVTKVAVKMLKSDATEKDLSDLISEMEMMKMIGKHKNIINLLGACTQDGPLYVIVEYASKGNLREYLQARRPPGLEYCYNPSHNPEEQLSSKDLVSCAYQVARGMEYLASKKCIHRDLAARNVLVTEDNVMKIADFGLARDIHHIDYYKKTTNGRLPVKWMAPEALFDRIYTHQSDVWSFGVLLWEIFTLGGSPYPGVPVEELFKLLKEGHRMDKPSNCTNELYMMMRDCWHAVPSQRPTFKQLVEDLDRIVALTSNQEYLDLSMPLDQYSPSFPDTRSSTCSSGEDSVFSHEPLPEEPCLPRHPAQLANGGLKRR
Sequence of Jak2 (O60674 whole entry, looked up): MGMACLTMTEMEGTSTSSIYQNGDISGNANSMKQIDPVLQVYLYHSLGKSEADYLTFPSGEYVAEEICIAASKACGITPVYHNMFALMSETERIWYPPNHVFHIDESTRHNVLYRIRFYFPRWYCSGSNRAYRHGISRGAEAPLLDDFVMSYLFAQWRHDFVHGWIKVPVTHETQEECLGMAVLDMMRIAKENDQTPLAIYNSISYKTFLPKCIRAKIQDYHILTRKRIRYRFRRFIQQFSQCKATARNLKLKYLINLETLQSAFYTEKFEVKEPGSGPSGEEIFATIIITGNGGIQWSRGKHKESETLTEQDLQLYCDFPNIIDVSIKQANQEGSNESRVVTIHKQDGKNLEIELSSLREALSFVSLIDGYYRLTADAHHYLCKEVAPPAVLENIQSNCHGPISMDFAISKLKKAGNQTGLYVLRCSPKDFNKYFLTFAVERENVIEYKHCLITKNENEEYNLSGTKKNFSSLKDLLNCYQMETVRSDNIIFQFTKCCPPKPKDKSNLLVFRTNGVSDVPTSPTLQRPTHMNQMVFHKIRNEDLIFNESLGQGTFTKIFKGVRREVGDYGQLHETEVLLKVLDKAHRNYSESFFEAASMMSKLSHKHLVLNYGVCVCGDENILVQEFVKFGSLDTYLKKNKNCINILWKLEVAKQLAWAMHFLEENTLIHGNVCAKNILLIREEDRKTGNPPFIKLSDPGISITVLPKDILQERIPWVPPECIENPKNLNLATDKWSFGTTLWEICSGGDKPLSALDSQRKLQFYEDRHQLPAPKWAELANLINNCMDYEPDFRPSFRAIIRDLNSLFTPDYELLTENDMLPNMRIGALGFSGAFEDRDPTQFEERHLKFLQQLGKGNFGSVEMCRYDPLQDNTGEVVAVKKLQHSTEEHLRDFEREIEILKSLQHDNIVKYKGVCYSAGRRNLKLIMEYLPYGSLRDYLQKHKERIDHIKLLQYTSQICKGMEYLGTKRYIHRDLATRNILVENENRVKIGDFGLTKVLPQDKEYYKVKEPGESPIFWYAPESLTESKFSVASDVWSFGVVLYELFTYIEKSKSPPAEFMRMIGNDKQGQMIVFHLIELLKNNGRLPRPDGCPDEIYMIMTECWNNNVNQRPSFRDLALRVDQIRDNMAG
Sequence of Hck (P08631 whole entry, looked up): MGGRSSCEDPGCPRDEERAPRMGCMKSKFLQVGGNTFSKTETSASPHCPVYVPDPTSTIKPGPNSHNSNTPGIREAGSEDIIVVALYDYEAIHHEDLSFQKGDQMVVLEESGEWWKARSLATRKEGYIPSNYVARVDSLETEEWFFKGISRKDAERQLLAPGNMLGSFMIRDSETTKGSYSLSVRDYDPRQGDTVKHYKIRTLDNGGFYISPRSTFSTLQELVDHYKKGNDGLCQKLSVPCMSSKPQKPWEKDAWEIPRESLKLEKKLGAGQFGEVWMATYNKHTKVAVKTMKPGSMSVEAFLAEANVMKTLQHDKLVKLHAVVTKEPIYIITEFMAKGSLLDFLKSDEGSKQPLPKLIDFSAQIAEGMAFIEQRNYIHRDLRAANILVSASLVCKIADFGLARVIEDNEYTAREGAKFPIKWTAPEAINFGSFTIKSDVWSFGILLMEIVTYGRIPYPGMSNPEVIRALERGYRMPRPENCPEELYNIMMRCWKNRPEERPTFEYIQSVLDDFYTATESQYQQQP
Sequence of EPHB1 (P54762 whole entry, looked up): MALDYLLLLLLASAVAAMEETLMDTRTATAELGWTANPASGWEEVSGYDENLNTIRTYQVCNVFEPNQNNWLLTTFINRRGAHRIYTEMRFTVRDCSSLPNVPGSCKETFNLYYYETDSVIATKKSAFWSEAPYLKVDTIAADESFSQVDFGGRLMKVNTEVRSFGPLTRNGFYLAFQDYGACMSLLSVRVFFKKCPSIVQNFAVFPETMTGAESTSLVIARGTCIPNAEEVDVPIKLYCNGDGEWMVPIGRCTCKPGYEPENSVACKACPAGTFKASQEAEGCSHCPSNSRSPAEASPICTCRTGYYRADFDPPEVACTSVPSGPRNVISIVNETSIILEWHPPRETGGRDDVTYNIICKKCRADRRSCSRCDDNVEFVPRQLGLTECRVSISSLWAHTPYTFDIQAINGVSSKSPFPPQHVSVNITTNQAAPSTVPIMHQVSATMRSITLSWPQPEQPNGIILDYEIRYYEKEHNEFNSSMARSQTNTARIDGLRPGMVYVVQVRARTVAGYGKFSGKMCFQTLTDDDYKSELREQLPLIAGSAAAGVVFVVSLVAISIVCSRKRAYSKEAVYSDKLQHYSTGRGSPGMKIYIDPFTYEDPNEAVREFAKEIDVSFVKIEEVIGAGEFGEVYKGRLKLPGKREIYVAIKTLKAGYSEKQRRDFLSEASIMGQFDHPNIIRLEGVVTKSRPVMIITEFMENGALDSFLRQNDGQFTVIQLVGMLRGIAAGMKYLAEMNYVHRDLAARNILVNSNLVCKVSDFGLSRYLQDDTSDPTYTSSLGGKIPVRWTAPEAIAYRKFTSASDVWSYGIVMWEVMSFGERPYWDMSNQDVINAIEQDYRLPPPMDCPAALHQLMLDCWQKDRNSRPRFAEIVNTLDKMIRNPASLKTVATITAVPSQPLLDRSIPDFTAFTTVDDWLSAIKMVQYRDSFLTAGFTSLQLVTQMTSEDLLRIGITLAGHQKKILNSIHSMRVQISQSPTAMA

Row | SH2 binding enrichment (Grb2 SH2) | SH2 binding enrichment (SHP2-C SH2) | SH2 binding enrichment (c-Src SH2) | Sequence | phosphorylation enrichment (AncSZ) | phosphorylation enrichment (EPHB1) | phosphorylation enrichment (EPHB2) | phosphorylation enrichment (FGFR1) | phosphorylation enrichment (FGFR3) | phosphorylation enrichment (Fer (mouse)) | phosphorylation enrichment (Fes) | phosphorylation enrichment (Fyn) | phosphorylation enrichment (Hck) | phosphorylation enrichment (Jak2) | phosphorylation enrichment (MERTK) | phosphorylation enrichment (c-Abl (mouse)) | phosphorylation enrichment (c-Src)
1 | 0.705 | 0.602 | 0.354 | KINKMYSDHAM | 0.495 | 0.351 | 0.285 | 0.315 | 0.364 | 0.408 | 0.463 | 0.349 | 0.308 | 0.5 | 0.432 | 0.499 | 0.416
2 | 0.93 | 0.946 | 0.76 | KKFPDYIQIAM [SGMS2_Y59_YF] | 1.13 | 4.26 | 0.672 | 8.61 | 5.17 | 0.427 | 1.06 | 0.468 | 0.496 | 1.07 | 0.461 | 0.7 | 0.556
3 | 1.6 | 1.14 | 2.43 | KKFVPYYDLFM [IPO5_Y530_E525K] | 0.895 | 4.25 | 4.22 | 4.49 | 3.24 | 1.3 | 1.05 | 2.06 | 2.1 | 1.07 | 6.5 | 0.686 | 2.32
4 | 1.62 | 1.41 | 1.51 | KKHIPYSEHKS [CSNK1G2_Y206_R207S] | 0.718 | 0.488 | 0.644 | 0.483 | 1.1 | 0.72 | 1.52 | 0.374 | 0.565 | 1.37 | 0.606 | 1.53 | 0.781
5 | 1.23 | 0.808 | 0.858 | KKYPDYIQIAR [SGMS2_Y59_M64R] | 0.98 | 7.96 | 1.22 | 3.97 | 2.55 | 0.388 | 0.984 | 0.367 | 0.48 | 1.28 | 0.392 | 0.702 | 0.47
6 | 1.16 | 1.02 | 0.81 | KLLLKYSFHDA [RNF213_Y4141_V4146A] | 1.05 | 0.616 | 0.615 | 0.484 | 0.672 | 0.476 | 1.3 | 0.367 | 0.418 | 0.993 | 0.39 | 0.616 | 0.385
7 | 0.86 | 0.702 | 0.638 | KLQKFYRKNPD [EHHADH_Y683_Q685K_YF] | 0.447 | 0.348 | 0.32 | 0.401 | 0.329 | 0.302 | 0.541 | 0.389 | 0.402 | 0.469 | 0.449 | 0.549 | 0.48
8 | 0.917 | 0.825 | 0.753 | KMKGDYFRSLA [YWHAG_Y130_Y133S_YF] | 0.676 | 0.457 | 0.361 | 0.456 | 0.602 | 0.436 | 0.675 | 0.399 | 0.484 | 0.633 | 0.437 | 0.521 | 0.456
